Biological target: CD161 (human)
Test: other (literature value, Kamishikiryo et al 2011)

Chain of CD161 (human) (chain, as listed by the source): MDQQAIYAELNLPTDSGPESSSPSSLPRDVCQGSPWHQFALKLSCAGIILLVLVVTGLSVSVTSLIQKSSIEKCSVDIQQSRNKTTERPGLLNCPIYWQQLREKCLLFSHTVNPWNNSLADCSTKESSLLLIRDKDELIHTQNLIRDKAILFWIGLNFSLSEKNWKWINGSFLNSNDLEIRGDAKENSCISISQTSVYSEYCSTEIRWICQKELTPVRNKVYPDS

B1: CLEC2D (protein)
chain: RANCHQEPSVCLQAACPESWIGFQRKCFYFSDDTKNWTSSQRFCDSQDADLAQVESFQELNFLLRYKGPSDHWIGLSREQGQPWKWINGTEWTRQFPILGAGECAYLNDKGASSARHYTERKWICSKSDIHV
Kd: 48 µM

Reference: patent publication US20260308262 (published 2026)
